Legend:
[1] = test system: HGF receptor expression site (infarct border zone); assay: Pinhole-SPECT imaging in myocardial ischemia model rats; assay type: in vivo, Wistar rats; conditions: 90 MBq left femoral vein
Method: Wistar rats (8-week-old) were anesthetized with isoflurane (Forane (R), Abbott). After tracheostomy, an artificial respirator connected to an anesthetizer was attached to each rat. The left chest was opened, and an electrogardiogram was measured before coronary ligation. The coronary artery and its peripheral tissue were ligated with suture. During ligation, nylon filament was placed as a spacer between the coronary artery and the suture in order to weaken the ligation strength so as not to completely intercept the blood flow. Ischemic state was determined on the basis of ST rise and recorded by an electrocardiogram. After recording, the left chest was closed, and the trachea and the skin were sutured.
Under inhalation anesthesia with isoflurane, ^99mTc-MIBI (90 MBq) was injected into the left femoral vein of each myocardial ischemia model rat. Subsequently, [^123I]HGF(11-83)-NH2 (73 aa) (100 MBq) prepared in a manner similar to that of Example 2 was administered through the right femoral vein. Thirty minutes after the administration, pinhole-SPECT imaging was conducted using a gamma camera (PRISM 2000, Shimadzu Corporation) (Imaging conditions: pinhole collimator, matrix sizes: 256×256, Mag 1.0, energy windows ^99mTc: 140 keV 10% and ^123I: 159 keV 10%, 3° 60 sec/step). […]

[2] = test system: HGF receptor expression site (infarct border zone); assay: Dual nuclide autoradiography in myocardial ischemia model rats; assay type: in vivo, CD(SD) IGS rats; conditions: 60 MBq femoral vein
Method: CD(SD) IGS rats (10-week-old) were anesthetized by intraperitoneally administering pentobarbital Na (35 mg/kg). After tracheostomy, an artificial respirator was attached to the rat. The left chest was opened, and an electrocardiogram was measured before coronary ligation. The coronary artery and its peripheral tissue (surrounding several millimeters) were ligated with suture, and ischemic state was determined on the basis of ST rise and recorded by an electrocardiogram. After recording, the chest was closed, and the trachea and the skin were sutured.
Three days after production of the myocardial ischemia model, a blood flow imaging agent ^99mTc-MIBI (Cardiolight Injection; DAIICHI RADIOISOTOPE LABS., LTD.) and [^125I]HGF(11-83)-NH2 (73 aa) were administered to each model rat. Blood flow was assessed through dual nuclide autoradiography and HE staining. ^99mTc-MIBI was administered at 60 MBq through a femoral vein. […] On the day of the experiment, the sample was affixed to an imaging plate for 30 minutes, and a ^99mTc-MIBI accumulation image was recorded by means of a bio-imaging analyzer BAS-1800 (FIG. 9). After 7-days attenuation period for ^99mTc for seven days, the sample was set again to the imaging plate for seven days, and a [^125I]HGF(11-83)-NH2 (73 aa) accumulation image was recorded by means of a bio-imaging analyzer BAS-1800 (FIG. 10).

[3] = Heparin-binding activity by heparin affinity column HPLC; conditions: for NaCl concentration at elution from heparin column: TSK-gel Heparin-5PW, linear gradient 0 to 2M NaCl, pH 7.5, room temperature
Method: The heparin-binding activity of [^125I]HGF(11-83)-NH2 (73 aa) produced in Example 1 was determined with high-performance liquid chromatography employing a heparin column. hrHGF (PEPTIDE INSTITUTE, INC.), having a high heparin-binding activity, was used as a positive control.
<High-Performance Liquid Chromatography Conditions>
Column: TSK-gel Heparin-5PW (0.75×7.5 cm): product of TOHSO
solution A: 10 mM Na phosphate buffer (pH 7.5);
solution B: 10 mM Na phosphate buffer (pH 7.5)+2M NaCl;
0 min to 3 min: solution A 100%
3 min to 30 min: linear gradient solution B 0% to 100%
Temperature: room temperature (about 25° C.)

[4] = target: T1, HGF receptor of HuCCT1 cells (Homo sapiens, UniProt P08581); assay: Binding assay on HuCCT-1 cells with inhibition by hrHGF
T1 construct: c-Met-expressing HuCCT-1 cells (human-origin cholangiocarcinoma cells); endogenous in cells; host or cells: HuCCT-1 (human cholangiocarcinoma cells)
T1 sequence (P08581 25-307 limits assumed): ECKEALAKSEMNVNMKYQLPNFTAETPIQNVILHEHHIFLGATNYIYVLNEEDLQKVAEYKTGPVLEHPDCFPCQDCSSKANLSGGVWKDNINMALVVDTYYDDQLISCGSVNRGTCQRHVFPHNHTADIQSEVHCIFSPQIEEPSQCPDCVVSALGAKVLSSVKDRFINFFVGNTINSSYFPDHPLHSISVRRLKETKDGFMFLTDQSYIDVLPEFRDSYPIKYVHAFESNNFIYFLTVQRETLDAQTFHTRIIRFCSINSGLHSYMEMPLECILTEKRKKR
T1 sequence (P08581 308-1390 limits assumed): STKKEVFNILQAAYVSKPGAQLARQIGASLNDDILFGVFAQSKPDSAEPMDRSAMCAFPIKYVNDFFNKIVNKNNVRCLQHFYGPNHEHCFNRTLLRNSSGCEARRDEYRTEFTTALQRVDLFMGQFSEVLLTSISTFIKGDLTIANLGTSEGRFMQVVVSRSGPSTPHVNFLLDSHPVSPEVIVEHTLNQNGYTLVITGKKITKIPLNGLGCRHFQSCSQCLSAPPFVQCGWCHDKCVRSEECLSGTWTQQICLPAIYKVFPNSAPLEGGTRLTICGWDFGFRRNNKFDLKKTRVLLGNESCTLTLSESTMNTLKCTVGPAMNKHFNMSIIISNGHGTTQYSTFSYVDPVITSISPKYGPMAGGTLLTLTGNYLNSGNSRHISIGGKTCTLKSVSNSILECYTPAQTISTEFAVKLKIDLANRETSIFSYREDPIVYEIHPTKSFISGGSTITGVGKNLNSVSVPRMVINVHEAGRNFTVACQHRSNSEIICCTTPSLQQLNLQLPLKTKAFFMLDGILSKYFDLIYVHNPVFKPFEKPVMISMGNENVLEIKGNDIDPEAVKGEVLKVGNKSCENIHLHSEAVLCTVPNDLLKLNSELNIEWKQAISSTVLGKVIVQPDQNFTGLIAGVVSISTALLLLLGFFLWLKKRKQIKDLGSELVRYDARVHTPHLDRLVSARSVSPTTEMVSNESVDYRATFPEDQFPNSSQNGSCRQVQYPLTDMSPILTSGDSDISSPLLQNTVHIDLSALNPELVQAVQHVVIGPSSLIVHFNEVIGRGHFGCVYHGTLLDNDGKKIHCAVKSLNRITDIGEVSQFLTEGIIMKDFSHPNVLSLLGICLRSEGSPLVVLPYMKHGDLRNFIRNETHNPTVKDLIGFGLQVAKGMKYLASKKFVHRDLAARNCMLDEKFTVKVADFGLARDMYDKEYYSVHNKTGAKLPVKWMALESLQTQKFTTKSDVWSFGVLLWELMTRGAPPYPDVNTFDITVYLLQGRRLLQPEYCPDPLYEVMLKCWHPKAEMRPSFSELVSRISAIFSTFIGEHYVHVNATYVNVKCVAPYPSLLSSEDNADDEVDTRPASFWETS
Method: Inhibition of binding of [^125I]HGF(11-83)-NH2 (73 aa) to c-Met-expressing HuCCT-1 cells (human-origin cholangiocarcinoma cells) by human recombinant HGF (hrHGF) was determined by the binding assay.
Specifically, a suspension of HuCCT-1 cells (100 μL, (1.5×10^5 cells)) prepared for a binding inhibition test was placed in an Eppendorf tube whose inner surface had been coated with bovine serum albumin (BSA), and a solution of hrHGF (PEPTIDE INSTITUTE, INC.) (50 μL, final concentration: 379 nM) was added to the tube. A negative control was prepared by adding a binding buffer (0.2% BSA, 20 mM HEPES Hanks' solution, pH 7.0) (50 μL) instead of the rhHGF solution. To the samples, 0.758 nM [^125I]HGF(11-83)-NH2 (73 aa) solution (50 μL) (final concentration: 0.190 nM, ratio by amount to hrHGF: 1:2,000) was added. Each Eppendorf tube containing HuCCT-1 cells was stirred and incubated at room temperature for one hour, followed by centrifuged at 4° C. (3,000 rpm, 3 min) to precipitate the cells. The supernatant was removed by means of an aspirator. The cells were stirred with an ice-cooled binding buffer (500 μL), and the mixture was centrifuged (3,000 rpm, 3 min). The procedure was repeated thrice. The radioactivity of the Eppendorf tube containing HuCCT-1 cells was measured by means of a gamma counter. The average and the standard deviation of the radioactivity (cpm) were calculated for the samples to which the hrHGF solution had been added (hrHGF(+)) and for the samples to which the binding buffer had been added (hrHGF(−)). The difference between the averages was assessed through the Student's t-test.

[5] = test system: c-Met-expressed McA-RH7777 cells (rat-origin liver cancer cells) tumor; assay: Accumulation in c-Met expressing tumor of implanted mice, autoradiography; assay type: in vivo, nude mice (BALB/c nu/nu); conditions: compared with anti-c-Met antibody (SP-260) immunohistochemical staining of serial sections
Method: c-Met-specific accumulation of [^125I]HGF(11-83)-NH2 (73 aa) in a tumor was observed by autoradiography and immunohistostaining in mice subcutaneously implanted c-Met expressing cancer cells.
3. Observation of c-Met-Specific Accumulation of [^125I]HGF(11-83)-NH2 (73 aa) in a Tumor of Mice Subcutaneously Implanted c-Met Expressing Cancer Cells by Autoradiography and Immunohistostaining
A suspension of c-Met-expressed McA-RH7777 cells (rat-origin liver cancer cells) (200 μL, 2.0×10^6 cells) was subcutaneously injected to a right hindlimb of 6-week-old nude mice (BALB/c nu/nu: Japan SLC, Inc.). On day 9 (tumor volume: […] (McA-RH7777 cells)), the aforementioned labeled HGF-fragment (370 kBq/100 μL) was intravenously administered to each mouse. The tumor was isolated with muscles surrounding the tumor 15 minutes after administration, and frozen sections were prepared. Each frozen section was affixed to an imaging plate (Fuji Photo Film Co., Ltd) for seven days, and a [^125I]HGF(11-83)-NH2 (73 aa) accumulation image was observed by means of a bio-imaging analyzer BAS-1800 (Fuji Photo Film Co., Ltd) (FIG. 5). […] Serial frozen sections were subjected to hematoxylin-eosin (HE) staining (FIG. 6) and immunohistochemical staining with anti-c-Met antibody (SP-260) (FIG. 7).

| Molecule | Accumulation at the infarct border zone (pinhole-SPECT) [1] | Accumulation at the infarct border zone (autoradiography) [2] | NaCl concentration at elution from heparin column [3] | Radioactivity bound to HuCCT1 cells, hrHGF(+) samples ([4]; 0.190 nM labeled peptide with 379 nM hrHGF, room temperature, one hour, mean±SD) [cpm] | Radioactivity bound to HuCCT1 cells, hrHGF(−) samples ([4]; 0.190 nM labeled peptide, room temperature, one hour, mean±SD) [cpm] | Reduction of binding to the cells by addition of hrHGF ([4]; hrHGF 379 nM, 2,000-fold mole concentration, P=0.040) [%] | Portion of the sample with strong heparin-binding activity ([3]; from the peak area ratios) | Area ratio of the heparin-binding peak ([3]; peak at 20.3 min, other peaks are free 125I and decomposed or denatured peptide) [%] | Specificity of accumulation in tumor [5] |
| --- | --- | --- | --- | --- | --- | --- | --- | --- | --- |
| [99Tc].[C-]#[N+]CC(C)(C)OC.[C-]#[N+]CC(C)(C)OC.[C-]#[N+]CC(C)(C)OC.[C-]#[N+]CC(C)(C)OC.[C-]#[N+]CC(C)(C)OC.[C-]#[N+]CC(C)(C)OC [^99mTc-MIBI] | reduced accumulation | reduced accumulation | – | – | – | – | – | – | – |
| hrHGF: human recombinant HGF (PEPTIDE INSTITUTE, INC.), positive control with high heparin-binding activity [reference compound] | – | – | about 1.5 M | – | – | – | – | – | – |
| [^125I]HGF(11-83)-NH2 (73 aa): labeled product prepared through directly introducing 125I into HGF(11-83)-NH2 (73 aa) (peptide) peptide: FKKSAKTTLIKIDPALKIKTKKVNTADQCANRCTRNKGLPFTCKAFVFDKARKQCLWFPFNSMSSGVKKEFGH | – | – | about 1.3 M | 20916.9±1574.2 | 26136.2±2580.8 | 20 | about 80% | 78.1 | c-Met-specific |

From patent US20090169473A1, “DIAGNOSTIC AGENT AND THERAPEUTIC AGENT FOR DISEASE ASSOCIATED WITH HEPATOCYTE GROWTH FACTOR RECEPTOR” (FUJIFILM RI PHARMA CO., LTD., priority 2005, published 2009)
